“Also recorded” adds a separate entry of the source.

Assay [1] deals with prk6 knockout pollen tubes. The settings on record: cited from earlier work. The text has this:
(§1) The DEFL peptide SCR9 that is involved in self-recognition in self-incompatibility induces homodimerization of its receptor SRK9 (ref. [34]).

Assay [2] deals with prk3 deletion pollen tubes. The settings on record: cited from earlier work.
Description: as §1

The test system of another assay is AtPRK6^LRR. Put plainly: Gel filtration assay with AtPRK6^LRR. It is filed as binding, Arabidopsis thaliana. The text has this:
(§2) The genes of AtPRK3 ^LRR (residues 1–241), AtPRK4 ^LRR (residues 1–277), AtPRK5 ^LRR (residues 1–279), AtPRK6 ^LRR (residues 1–262), MIK1 ^LRR (residues 1–633), MIK2 ^LRR (residues 1–707) were amplified from Arabidopsis cDNA library by PCR and cloned into pFastBac-1 vector with a C-terminal 6 × His-tag. Their identities were confirmed by sequencing. The mature form of AtLURE1.1 (residues 20–94), AtLURE1.2 (residues 20–90), AtLURE1.3 (residues 21–91), and AtLURE1.4 (residues 20–90) were cloned into pFastBac-1 vector, with a modified N-terminal hemolin signal peptide and 6 × His-SUMO tag. Point mutation constructs were generated by QuickChange Site-Directed Mutagenesis Kit (Strategene). All the proteins were expressed using the Bac-to-Bac baculovirus expression system (Invitrogen) in High Five cells at 22 °C. One liter of High Five cells (2.0 × 10^6 cells mL^−1) cultured in the medium from Expression Systems was infected with 25 ml recombinant baculovirus and the media was collected after 72 h of infection. Secreted LRR proteins were purified using Ni-NTA (Novagen) and size-exclusion chromatography (Hiload 200, GE Healthcare) in buffer containing 10 mM Bis-Tris pH 6.0 and 100 mM NaCl. The His-SUMO tag of the AtLURE proteins was removed by Prescission Protease at 4 °C overnight in buffer containing 25 mM Tris pH 8.0 and 150 mM NaCl. […]

A further assay deals with MIK2^LRR. Put plainly: ITC, AtLURE1.2 titrated into MIK2^LRR. It is filed as binding, Arabidopsis. The following applies: 25 °C, 200 mM HEPES pH 7.0, 100 mM NaCl, as for MIK1LRR (0.5 mM AtLURE1.2 into 0.05 mM).
Description: as §2, with “NaCl.” for “NaCl. The His-SUMO tag of the AtLURE proteins was removed by Prescission Protease at 4 °C overnight in buffer containing 25 mM Tris pH 8.0 and 150 mM NaCl.”
Supplementary Figure 6: Binding affinity between MIK1LRR, MIK2LRR and AtLURE1.2 was not detected in ITC assay. […]

B1: AtLURE1.2: mature form of AtLURE1.2 (residues 20–90), defensin-like cysteine-rich peptide expressed in insect cells (protein)
chain: TLINGSSDEERTYSFSPTTSPFDPRSLNQELKIGRIGYCFDCARACMRRGKYIRTCSFERKLCRCSISDIK
modifications: left off: His6, N-terminal, cleaved | SUMO, N-terminal, cleaved
notes: mature form of AtLURE1.2 (residues 20–90), defensin-like cysteine-rich peptide expressed in insect cells
As to B1, in assay [1], the “pollen tube reorientation toward AtLURE1.2” value is on record as “completely abolished”. Also, the “responsiveness of pollen tubes to AtLURE1.2” value in assay [2] was “little effect”. Also, the “effect on monomeric state of AtPRK6^LRR in solution” value in the assay with AtPRK6^LRR (gel filtration) is on record as “did not alter the monomeric status; also recorded: does not alter the monomeric state”. The “complex formation in gel filtration” value with AtPRK6^LRR (purified proteins mixed at molar ratio about 1:3, 4 °C 30 min, 10 mM Bis-Tris pH 6.0, 100 mM NaCl) is recorded as “formed a stable complex”. Further, the “binding in ITC” value with MIK2^LRR is on record as “not detected; also recorded: no obvious heat was produced; also recorded: none of the purified AtPRK3^LRR, MIK1^LRR or MIK2^LRR proteins showed detectable interaction”.

The values above are taken from paper PMC5673899, “Structural basis for receptor recognition of pollen tube attraction peptides” (Nature Communications, 2017).
